Results: article PMC3676522 (Synapse (New York, N.Y.), 2011)

Legend:
[1] = target: DA transporter (DAT) (Rattus norvegicus, UniProt P23977); experiment: [3H]DA uptake into rat striatal synaptosomes; assay type: biochemical
[2] = target: human DAT (Homo sapiens, UniProt Q01959); experiment: Dissociation of [3H]WIN 35,428 binding from HEK/hDAT cells; conditions: for Dissociation rate K−1 of [3H]WIN 35,428 binding (single component model): experiment B
Chain of human DAT (Q01959 whole entry): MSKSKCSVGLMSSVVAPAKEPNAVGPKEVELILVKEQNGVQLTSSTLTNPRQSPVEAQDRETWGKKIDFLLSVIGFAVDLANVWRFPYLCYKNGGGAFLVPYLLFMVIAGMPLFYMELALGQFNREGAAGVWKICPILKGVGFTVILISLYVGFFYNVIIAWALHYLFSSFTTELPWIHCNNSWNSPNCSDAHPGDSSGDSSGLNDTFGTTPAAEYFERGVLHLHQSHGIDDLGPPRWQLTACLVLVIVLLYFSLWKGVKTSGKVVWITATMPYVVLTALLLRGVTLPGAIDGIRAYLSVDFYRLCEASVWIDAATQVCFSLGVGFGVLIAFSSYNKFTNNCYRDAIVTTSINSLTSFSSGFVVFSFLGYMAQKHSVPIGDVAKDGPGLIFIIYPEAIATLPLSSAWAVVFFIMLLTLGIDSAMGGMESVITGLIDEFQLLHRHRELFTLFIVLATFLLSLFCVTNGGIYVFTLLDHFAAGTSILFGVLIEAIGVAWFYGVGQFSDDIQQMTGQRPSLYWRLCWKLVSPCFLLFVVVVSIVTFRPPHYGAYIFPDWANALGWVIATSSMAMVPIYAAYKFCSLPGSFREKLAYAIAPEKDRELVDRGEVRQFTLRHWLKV

Chain of DA transporter (DAT) (P23977 whole entry): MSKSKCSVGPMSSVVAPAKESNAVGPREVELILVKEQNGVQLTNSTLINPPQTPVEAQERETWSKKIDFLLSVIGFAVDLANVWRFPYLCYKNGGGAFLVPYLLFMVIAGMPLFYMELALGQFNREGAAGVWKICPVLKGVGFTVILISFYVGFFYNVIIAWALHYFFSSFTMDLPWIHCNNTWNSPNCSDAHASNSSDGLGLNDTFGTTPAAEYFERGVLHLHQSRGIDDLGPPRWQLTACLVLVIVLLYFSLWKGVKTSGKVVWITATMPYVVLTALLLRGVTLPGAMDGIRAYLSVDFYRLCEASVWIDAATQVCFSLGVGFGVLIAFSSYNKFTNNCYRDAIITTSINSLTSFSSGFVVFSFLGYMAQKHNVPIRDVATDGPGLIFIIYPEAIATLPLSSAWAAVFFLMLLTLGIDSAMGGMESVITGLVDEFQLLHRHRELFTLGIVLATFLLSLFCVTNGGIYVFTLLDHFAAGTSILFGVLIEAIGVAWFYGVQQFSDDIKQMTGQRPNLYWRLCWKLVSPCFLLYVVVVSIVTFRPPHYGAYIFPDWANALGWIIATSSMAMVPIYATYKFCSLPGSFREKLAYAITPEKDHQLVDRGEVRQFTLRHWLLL

Question: How did the “Specific Uptake (percentage of control)” value ([1]; indatraline 10 nM, control = cocaine alone) turn out when `CN[C@@H]1C[C@@H](c2ccc(Cl)c(Cl)c2)c2ccccc21.Cl` [Indatraline, indatraline hydrochloride] was run?
Answer: 33%

Question: How did the “Specific Uptake (percentage of control)” value ([1]; control (cocaine alone)) turn out when `COC(=O)[C@H]1[C@@H](OC(=O)c2ccccc2)C[C@@H]2CC[C@H]1N2C` [Cocaine] was run?
Answer: 100%

B1: Tat: Recombinant HIV-1 Tat1-86 protein, LA1/Bru strain of HIV-1 clade B, Genbank accession no. K02013 (protein)
chain: MEPVDPRLEPWKHPGSQPKTACTTCYCKKCCFHCQVCFTTKALGISYGRKKRRQRRRPPQGSQTHQVSLSKQPTSQPRGDPTGPKE
Question: B1 was tested. Which “Specific Uptake (percentage of control)” value ([1]; Tat 5 μM, control = cocaine alone) did it give?
Answer: 45%

Question: What about the “Dissociation rate of [3H]WIN 35,428 relative to that observed with cocaine alone” value ([2]; Tat added after cocaine) of the same molecule?
Answer: 25%

Question: What about the “Dissociation rate K−1 of [3H]WIN 35,428 binding (single component model)” value ([2]; condition-2: cocaine 10 μM at time 0, Tat 5 μM added 5 min later) of the same molecule?
Answer: 0.08 ± 0.005 min⁻¹

Question: And the “Dissociation rate K−1 of [3H]WIN 35,428 binding (single component model)” value ([2]; condition-3: Tat 5 μM alone)?
Answer: 0.03 ± 0.009 min⁻¹
